Experimental data: patent publication US20250339569A1 (3B PHARMACEUTICALS, published 2025)
Starred links: 1 amine or outer side, 2 acyl side, 3 side chain; linkers in the order of their positions; H or OH if unused. Positions of bridges follow the written chain, without caps; N, C: chain ends. Non-standard residues stand in square brackets, D forms with d. Primed or numbered codes have the meaning given here. No end group written: not given here. *: point of attachment. Aph(SaPr) = 4-amino-L-phenylalanine, ring amine acylated by 3-sulfamoylpropanoic acid, NS(=O)(=O)CCC(=O)Nc1ccc(C[C@H](N[*:1])C(=O)[*:2])cc1; Ttds(4) = 1,13-diamino-4,7,10-trioxatridecan-succinamic acid spacer, O=C(CCC(=O)[*:2])NCCCOCCOCCOCCCN[*:1]; Ttds = 1,13-diamino-4,7,10-trioxatridecan-succinamic acid spacer, NCCCOCCOCCOCCCNC(=O)CCC(=O)*; Phe(3-NHCO(CH2)3SO2NH2) = N[C@@H](Cc1cccc(NC(=O)CCCS(N)(=O)=O)c1)C(=O)O; APAc″ = 2-(4-(amino)piperidin-1-yl)acetic acid, NC1CCN(CC(=O)*)CC1; DOTA = O=C(O)CN1CCN(CC(=O)O)CCN(CC(=O)*)CCN(CC(=O)O)CC1; PPAc = 4-carboxymethyl piperazine linker; mXylylene = c1cc(C[*:1])cc(C[*:2])c1; tBuAla = CC(C)(C)C[C@H](N)C(=O)O; Pen = CC(C)(S)[C@H](N)C(=O)O; Tle = CC(C)(C)[C@H](N)C(=O)O; 3Amb = NCc1cccc(C(=O)O)c1; PPAc″ = not defined here; Cmp = not defined here; Dap = NC[C@H](N)C(=O)O; Rni = not defined here

B1: 3BP-4338 (peptide)
peptide: DCE[dP]DWLTW[Dap]C-NH2
modifications: lactam 1-10; linker 2-11 via mXylylene; not fully specified (N-terminus); also: indium complexed by DOTA
B2: 3BP-3063 (peptide)
peptide: Ac-VY[Pen]EGDWLTWQC-NH2
modifications: linker 3-12 via mXylylene
SMILES: CC(=O)N[C@H](C(=O)N[C@@H](Cc1ccc(O)cc1)C(=O)N[C@@H]1C(=O)N[C@@H](CCC(=O)O)C(=O)NCC(=O)N[C@@H](CC(=O)O)C(=O)N[C@@H](Cc2c[nH]c3ccccc23)C(=O)N[C@@H](CC(C)C)C(=O)N[C@@H]([C@@H](C)O)C(=O)N[C@@H](Cc2c[nH]c3ccccc23)C(=O)N[C@@H](CCC(N)=O)C(=O)N[C@H](C(N)=O)CSCc2cccc(c2)CSC1(C)C)C(C)C
B3: 3BP-3899 (peptide)
peptide: Ac-VYCE[dP]DWLKWSC-NH2
modifications: linker 3-12 via mXylylene; lactam 4-9
SMILES: CC(=O)N[C@H](C(=O)N[C@@H](Cc1ccc(O)cc1)C(=O)N[C@H]1CSCc2cccc(c2)CSC[C@@H](C(N)=O)NC(=O)[C@H](CO)NC(=O)[C@H](Cc2c[nH]c3ccccc23)NC(=O)[C@@H]2CCCCNC(=O)CC[C@H](NC1=O)C(=O)N1CCC[C@@H]1C(=O)N[C@@H](CC(=O)O)C(=O)N[C@@H](Cc1c[nH]c3ccccc13)C(=O)N[C@@H](CC(C)C)C(=O)N2)C(C)C
B4: 3BP-4505 (peptide)
peptide: {DOTA}-ECE[dP]D[Aph(SaPr)]LTW[Dap]C-NH2
modifications: lactam 1-10; linker 2-11 via mXylylene
SMILES: CC(C)C[C@@H]1NC(=O)[C@H](Cc2ccc(NC(=O)CCS(N)(=O)=O)cc2)NC(=O)[C@H](CC(=O)O)NC(=O)[C@H]2CCCN2C(=O)[C@H](CCC(=O)O)NC(=O)[C@@H]2CSCc3cccc(c3)CSC[C@@H](C(N)=O)NC(=O)[C@H](CNC(=O)CC[C@H](NC(=O)CN3CCN(CC(=O)O)CCN(CC(=O)O)CCN(CC(=O)O)CC3)C(=O)N2)NC(=O)[C@H](Cc2c[nH]c3ccccc23)NC(=O)[C@H]([C@@H](C)O)NC1=O
B5: 3BP-2949 (peptide)
peptide: Ac-VYCEGDWLTWQC[Ttds(4)][dK](DOTA)-NH2
modifications: linker 3-12 via mXylylene
SMILES: CC(=O)N[C@H](C(=O)N[C@@H](Cc1ccc(O)cc1)C(=O)N[C@H]1CSCc2cccc(c2)CSC[C@@H](C(=O)NCCCOCCOCCOCCCNC(=O)CCC(=O)N[C@H](CCCCNC(=O)CN2CCN(CC(=O)O)CCN(CC(=O)O)CCN(CC(=O)O)CC2)C(N)=O)NC(=O)[C@H](CCC(N)=O)NC(=O)[C@H](Cc2c[nH]c3ccccc23)NC(=O)[C@H]([C@@H](C)O)NC(=O)[C@H](CC(C)C)NC(=O)[C@H](Cc2c[nH]c3ccccc23)NC(=O)[C@H](CC(=O)O)NC(=O)CNC(=O)[C@H](CCC(=O)O)NC1=O)C(C)C
B6: 3BP-4260 (peptide)
peptide: {DOTA-3Amb}-DCE[dP]DWLTW[Dap]C-NH2
modifications: lactam 10-1; linker 2-11 via mXylylene
SMILES: CC(C)C[C@@H]1NC(=O)[C@H](Cc2c[nH]c3ccccc23)NC(=O)[C@H](CC(=O)O)NC(=O)[C@H]2CCCN2C(=O)[C@H](CCC(=O)O)NC(=O)[C@@H]2CSCc3cccc(c3)CSC[C@@H](C(N)=O)NC(=O)[C@H](CNC(=O)C[C@H](NC(=O)c3cccc(CNC(=O)CN4CCN(CC(=O)O)CCN(CC(=O)O)CCN(CC(=O)O)CC4)c3)C(=O)N2)NC(=O)[C@H](Cc2c[nH]c3ccccc23)NC(=O)[C@H]([C@@H](C)O)NC1=O
B7: 3BP-3043 (peptide)
peptide: Ac-[dV]YCEGDWLTWQC-NH2
modifications: linker 3-12 via mXylylene
SMILES: CC(=O)N[C@@H](C(=O)N[C@@H](Cc1ccc(O)cc1)C(=O)N[C@H]1CSCc2cccc(c2)CSC[C@@H](C(N)=O)NC(=O)[C@H](CCC(N)=O)NC(=O)[C@H](Cc2c[nH]c3ccccc23)NC(=O)[C@H]([C@@H](C)O)NC(=O)[C@H](CC(C)C)NC(=O)[C@H](Cc2c[nH]c3ccccc23)NC(=O)[C@H](CC(=O)O)NC(=O)CNC(=O)[C@H](CCC(=O)O)NC1=O)C(C)C
B8: 3BP-3066 (peptide)
peptide: Ac-VYCEGDW[Tle]TWQC-NH2
modifications: linker 3-12 via mXylylene
SMILES: CC(=O)N[C@H](C(=O)N[C@@H](Cc1ccc(O)cc1)C(=O)N[C@H]1CSCc2cccc(c2)CSC[C@@H](C(N)=O)NC(=O)[C@H](CCC(N)=O)NC(=O)[C@H](Cc2c[nH]c3ccccc23)NC(=O)[C@H]([C@@H](C)O)NC(=O)[C@H](C(C)(C)C)NC(=O)[C@H](Cc2c[nH]c3ccccc23)NC(=O)[C@H](CC(=O)O)NC(=O)CNC(=O)[C@H](CCC(=O)O)NC1=O)C(C)C
notes: also called Ac-Val-Tyr-[Cys(3MeBn)-Glu-Gly-Asp-Trp-Tle-Thr-Trp-Gln-Cys]-NH2

Key:
[1] = target: T1, Fc-fusion protein of human carbonic anhydrase IX (human, UniProt Q16790 38-414); assay: SPR, captured hCAIX-Fc; pKD category A: >8.0
[2] = target: T1, Fc-fusion protein of human carbonic …; assay: SPR, captured hCAIX-Fc; t1/2 category D: <=2.0 min
Description: Stock solutions of test compounds were prepared by dissolving each compound in DMSO. DMSO stock solution were diluted 1:1000 in Running Buffer without DMSO. […] SPR binding analyses were performed in Single Cycle Kinetic (SCK) mode at 25° C.
For each test compound, SPR raw data in the form of resonance units (RU) were plotted as sensorgrams using the Biacore™ T200 control software. The signal from the blank sensorgram was subtracted from that of the test compound sensorgram (blank corrected). The blank corrected sensorgram was corrected for baseline drift by subtracting the sensorgram of a SCK run without the test compound (running buffer only). […] Raw data and fit results were imported as text files in IDBS. The pKD value (negative decadic logarithm of dissociation constant) was calculated in the IDBS excel template.

[3] = target: human carbonic anhydrase 9 (CAIX) (human, UniProt Q16790 38-459); assay: FACS competition on HT-29 cells against tracer 3BP-2776; pIC50 category B = pIC50 7.1-8.0
Description: (§1) CAIX-expressing human HT-29 colorectal cancer cells (DSMZ, RRID: CVCL_0320) were cultured in McCoys's 5A modified medium (Biochrom, #F1015) including 10% fetal calf serum (FCS), 2 mM L-glutamine, 100 U/ml penicillin and 100 μg/mL streptomycin. Cells were detached with Accutase (Biolegend, #423201) and washed in FACS buffer (PBS including 1% FCS). Cells were diluted in FACS buffer to a final concentration of 500.000 cells per ml. 200 μL of the cell suspension were transferred to a u-shaped non-binding 96-well plate (Greiner) and cells were washed in ice-cold FACS buffer.
(§2) When biotinylated compounds were used an additional incubation step with 1 μg/mL APC-Streptavidin (Miltenyi; #130-106-791) in 50 μL FACS buffer for 30 minutes on ice was performed.
(§3) Cells were washed twice with ice-cold FACS buffer and analyzed in an Attune NxT flow cytometer (Thermo Fisher). Median fluorescence intensities (MFI) of the APC/Cy5-channel were calculated by Attune NxT software.

[4] = target: human carbonic anhydrase 9 (CAIX) (human, UniProt Q16790 38-459); assay: FACS competition on HT-29 cells, competitor tracer 3BP-2776; category C = pIC50 6.1-7.0
Description: as §1, §2, §3

[5] = target: T1, Fc-fusion protein of human carbonic …; assay: SPR, captured hCAIX-Fc; t1/2 category A: >15.0 min
[6] = target: human carbonic anhydrase IX (CAIX) (human, UniProt Q16790 38-459); assay: FACS competition, HT-29 cells, tracer 3BP-2776; pIC50 category A: >8.0
Description: as §1, §2, §3

Row | Binder | pKD [1] [pkd] | t1/2 (half-life of the complex, SPR) [2] [min] | pIC50 [6] [pic50] | further results
1 | B1 | > 8 | ≤ 2 |  | 
2 | B2 |  |  |  | pIC50 [3]: 7.1 to 8 pic50
3 | B3 |  |  |  | pIC50 [4]: 6.1 to 7 pic50
4 | {DOTA-PPAc}-ECE[dP]D[Aph(SaPr)]LTW[Dap]C-NH2 (lactam 1-10; linker 2-11 via mXylylene) [3BP-4504] | > 8 |  | > 8 | t1/2 (half-life of the complex, SPR) [5]: > 15 min
5 | B4 | > 8 |  | > 8 | t1/2 (half-life of the complex, SPR) [5]: > 15 min
6 | {DOTA-PPAc}-ECE[dP]D[Phe(3-NHCO(CH2)3SO2NH2)]LTW[Dap]C-NH2 (lactam 1-10; linker 2-11 via mXylylene) [3BP-4502] | > 8 |  | > 8 | t1/2 (half-life of the complex, SPR) [5]: > 15 min
7 | B5 |  |  |  | pIC50 [3]: 7.1 to 8 pic50
8 | {DOTA-Cmp}-DCE[dP]DWLTW[Dap]C-NH2 (lactam 10-1; linker 2-11 via mXylylene; reading uncertain) [3BP-4259] | > 8 | ≤ 2 |  | 
9 | {DOTA-PPAc″}-YCE[dP]D[Phe(3-NHCO(CH2)3SO2NH2)][tBuAla]TWSC-NH2 (linker 2-11 via mXylylene; reading uncertain) [3BP-4449] |  |  | > 8 | 
10 | {DOTA-PPAc}-DCE[dP]DWLTW[Dap]C-NH2 (lactam 10-1; linker 2-11 via mXylylene) [3BP-4255] | > 8 | ≤ 2 |  | 
11 | {DOTA-APAc″}-CE[dP]DWLTWSC-NH2 (linker 1-10 via mXylylene) [3BP-3858] | > 8 | ≤ 2 |  | 
12 | {DOTA-Ttds}-VYCEGDWLTWQC-NH2 (linker 3-12 via mXylylene) [3BP-2959] | > 8 | ≤ 2 |  | 
13 | {DOTA-PPAc″}-YCE[dP]D[Phe(3-NHCO(CH2)3SO2NH2)]LTWSC-NH2 (linker 2-11 via mXylylene; reading uncertain) [3BP-4448] | > 8 |  | > 8 | t1/2 (half-life of the complex, SPR) [5]: > 15 min
14 | {DOTA-PPAc″}-SCE[dP]D[Phe(3-NHCO(CH2)3SO2NH2)]LTWSC-NH2 (linker 2-11 via mXylylene; reading uncertain) [3BP-4450] |  |  | > 8 | 
15 | {DOTA-PPAc″}-RCE[dP]D[Phe(3-NHCO(CH2)3SO2NH2)]LTWSC-NH2 (linker 2-11 via mXylylene; reading uncertain) [3BP-4451] |  |  | > 8 | 
16 | {DOTA-Rni}-YCE[dP]D[Phe(3-NHCO(CH2)3SO2NH2)]LTWSC-NH2 (linker 2-11 via mXylylene; reading uncertain) [3BP-4455] | > 8 |  | > 8 | t1/2 (half-life of the complex, SPR) [5]: > 15 min
17 | B6 | > 8 | ≤ 2 |  | 
18 | B7 |  |  |  | pIC50 [3]: 7.1 to 8 pic50
19 | B8 |  |  |  | pIC50 [3]: 7.1 to 8 pic50
